T1: SCUBE1.Myc (human SCUBE1 tagged with Myc at the C-terminus, endogenous signal peptide) (human, UniProt Q8IWY4 23-988)
T1 construct: Expressed by transient transfection in HEK-293 / 293T cells; also called Myc-tagged human SCUBE1
T1 chain: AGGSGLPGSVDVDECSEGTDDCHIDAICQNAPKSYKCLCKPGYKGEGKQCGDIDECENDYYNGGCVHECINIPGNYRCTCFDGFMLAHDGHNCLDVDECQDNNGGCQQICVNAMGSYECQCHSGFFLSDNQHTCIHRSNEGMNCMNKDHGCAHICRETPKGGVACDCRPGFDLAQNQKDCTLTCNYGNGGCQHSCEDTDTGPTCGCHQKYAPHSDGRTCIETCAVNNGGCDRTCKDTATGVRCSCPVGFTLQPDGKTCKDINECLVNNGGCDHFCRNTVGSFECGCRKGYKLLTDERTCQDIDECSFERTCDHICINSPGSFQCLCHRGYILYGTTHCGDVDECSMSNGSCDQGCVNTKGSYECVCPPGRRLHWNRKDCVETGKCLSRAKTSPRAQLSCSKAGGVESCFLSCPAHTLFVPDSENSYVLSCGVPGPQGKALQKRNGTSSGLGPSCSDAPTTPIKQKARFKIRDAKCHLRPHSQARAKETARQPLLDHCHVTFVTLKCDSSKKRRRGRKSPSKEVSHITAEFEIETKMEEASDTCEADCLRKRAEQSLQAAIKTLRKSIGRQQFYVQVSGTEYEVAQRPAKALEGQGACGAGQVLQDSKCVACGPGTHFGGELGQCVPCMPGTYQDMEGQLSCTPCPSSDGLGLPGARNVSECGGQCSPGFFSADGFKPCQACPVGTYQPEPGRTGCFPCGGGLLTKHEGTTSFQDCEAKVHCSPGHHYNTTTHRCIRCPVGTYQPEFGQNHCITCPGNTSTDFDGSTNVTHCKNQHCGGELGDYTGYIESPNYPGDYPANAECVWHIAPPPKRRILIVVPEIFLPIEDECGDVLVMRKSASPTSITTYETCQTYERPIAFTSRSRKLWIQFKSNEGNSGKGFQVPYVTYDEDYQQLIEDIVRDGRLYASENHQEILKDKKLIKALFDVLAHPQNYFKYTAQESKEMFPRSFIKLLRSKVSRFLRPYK

B1: human SCUBE1 (SEQ ID NO:2) (other)
chain: AGGSGLPGSVDVDECSEGTDDCHIDAICQNAPKSYKCLCKPGYKGEGKQCGDIDECENDYYNGGCVHECINIPGNYRCTCFDGFMLAHDGHNCLDVDECQDNNGGCQQICVNAMGSYECQCHSGFFLSDNQHTCIHRSNEGMNCMNKDHGCAHICRETPKGGVACDCRPGFDLAQNQKDCTLTCNYGNGGCQHSCEDTDTGPTCGCHQKYAPHSDGRTCIETCAVNNGGCDRTCKDTATGVRCSCPVGFTLQPDGKTCKDINECLVNNGGCDHFCRNTVGSFECGCRKGYKLLTDERTCQDIDECSFERTCDHICINSPGSFQCLCHRGYILYGTTHCGDVDECSMSNGSCDQGCVNTKGSYECVCPPGRRLHWNRKDCVETGKCLSRAKTSPRAQLSCSKAGGVESCFLSCPAHTLFVPDSENSYVLSCGVPGPQGKALQKRNGTSSGLGPSCSDAPTTPIKQKARFKIRDAKCHLRPHSQARAKETARQPLLDHCHVTFVTLKCDSSKKRRRGRKSPSKEVSHITAEFEIETKMEEASDTCEADCLRKRAEQSLQAAIKTLRKSIGRQQFYVQVSGTEYEVAQRPAKALEGQGACGAGQVLQDSKCVACGPGTHFGGELGQCVPCMPGTYQDMEGQLSCTPCPSSDGLGLPGARNVSECGGQCSPGFFSADGFKPCQACPVGTYQPEPGRTGCFPCGGGLLTKHEGTTSFQDCEAKVHCSPGHHYNTTTHRCIRCPVGTYQPEFGQNHCITCPGNTSTDFDGSTNVTHCKNQHCGGELGDYTGYIESPNYPGDYPANAECVWHIAPPPKRRILIVVPEIFLPIEDECGDVLVMRKSASPTSITTYETCQTYERPIAFTSRSRKLWIQFKSNEGNSGKGFQVPYVTYDEDYQQLIEDIVRDGRLYASENHQEILKDKKLIKALFDVLAHPQNYFKYTAQESKEMFPRSFIKLLRSKVSRFLRPYK
modifications: glycosylated (N-linked, tunicamycin-sensitive)
notes: protein of 988 amino acids; also called Signal peptide-CUB-EGF-like domain-containing protein 1; recombinantly expressed SCUBE1
B2: human SCUBE2 (SEQ ID NO:4) (other)
chain: RAAGPQEDVDECAQGLDDCHADALCQNTPTSYKCSCKPGYQGEGRQCEDIDECGNELNGGCVHDCLNIPGNYRCTCFDGFMLAHDGHNCLDVDECLENNGGCQHTCVNVMGSYECCCKEGFFLSDNQHTCIHRSEEGLSCMNKDHGCSHICKEAPRGSVACECRPGFELAKNQRDCILTCNHGNGGCQHSCDDTADGPECSCHPQYKMHTDGRSCLEREDTVLEVTESNTTSVVDGDKRVKRRLLMETCAVNNGGCDRTCKDTSTGVHCSCPVGFTLQLDGKTCKDIDECQTRNGGCDHFCKNIVGSFDCGCKKGFKLLTDEKSCQDVDECSLDRTCDHSCINHPGTFACACNRGYTLYGFTHCGDVTTIRTSVTFKLNEGKCSLKNAELFPEGLRPALPEKHSSVKESFRYVNLTCSSGKQVPGAPGRPSTPKEMFITVEFELETNQKEVTASCDLSCIVKRTEKRLRKAIRTLRKAVHREQFHLQLSGMNLDVAKKPPRTSERQAESCGVGQGHAENQCVSCRAGTYYDGARERCILCPNGTFQNEEGQMTCEPCPRPGNSGALKTPEAWNMSECGGLCQPGEYSADGFAPCQLCALGTFQPEAGRTSCFPCGGGLATKHQGATSFQDCETRVQCSPGHFYNTTTHRCIRCPVGTYQPEFGKNNCVSCPGNTTTDFDGSTNITQCKNRRCGGELGDFTGYIESPNYPGNYPANTECTWTINPPPKRRILIVVPEIFLPIEDDCGDYLVMRKTSSSNSVTTYETCQTYERPIAFTSRSKKLWIQFKSNEGNSARGFQVPYVTYDEDYQELIEDIVRDGRLYASENHQEILKDKKLIKALFDVLAHPQNYFKYTAQESREMFPRSFIRLLRSKVSRFLRPYK
notes: protein of 919 amino acids; also called recombinantly expressed SCUBE2
B3: Flag.SCUBE1-D2 (Flag-tagged deletion construct 2 of human SCUBE1, amino acids 26-411 of SEQ ID NO:2; spacer, 10th EGF-like domain and CUB domain deleted) (other, not shown: small tags and cut ends)
chain: SGLPGSVDVDECSEGTDDCHIDAICQNAPKSYKCLCKPGYKGEGKQCGDIDECENDYYNGGCVHECINIPGNYRCTCFDGFMLAHDGHNCLDVDECQDNNGGCQQICVNAMGSYECQCHSGFFLSDNQHTCIHRSNEGMNCMNKDHGCAHICRETPKGGVACDCRPGFDLAQNQKDCTLTCNYGNGGCQHSCEDTDTGPTCGCHQKYAPHSDGRTCIETCAVNNGGCDRTCKDTATGVRCSCPVGFTLQPDGKTCKDINECLVNNGGCDHFCRNTVGSFECGCRKGYKLLTDERTCQDIDECSFERTCDHICINSPGSFQCLCHRGYILYGTTHCGDVDECSMSNGSCDQGCVNTKGSYECVCPPGRRLHWNRKDCVETGKCLSRA

Columns and labels:
[1] = biological target: B2; assay: overexpression; method not given
[2] = biological target: the molecule itself; assay: overexpression; method not given
[3] = biological target: T1, SCUBE1.Myc (human SCUBE1 tagged with …); assay: co-immunoprecipitation of detergent lysates, anti-Myc IP, anti-Flag M2 blot (FIG. 8b)
Procedure: HEK-293 cells were transfected with expression plasmids encoding Flag-tagged full-length SCUBE1, SCUBE1-D1, SCUBE1-D2 and TLR2 (control) proteins, and, two days after transfection, cells were collected and homogenized. Samples of supernatant (S10) were centrifuged at 100,000×g for 30 min to give soluble fractions (S100) and pellets (P100 membrane fraction). Pellets were resuspended in original volumes of homogenization buffer with 0.1 M Na₂CO₃ (pH 12), sonicated briefly, and then incubated on ice for 30 min. Samples were centrifuged again at 100,000×g for 30 min. to give washed fractions S100′ and pellets P100′. Each fraction was subjected to SDS-PAGE and immunoblot analysis using anti-Flag M2 antibody. […] Upon disruption by sonication, however, they are released from the membrane and can be detected in the soluble membrane fraction. […] Flag-SCUBE1 and SCUBE1.Myc were singly or co-transfected in 293T cells. As a control, SCUBE1.Myc was expressed together with Flag-tagged IL-1β receptor (Flag.IL-1R1). Immunoprecipitation (IP) and Western blot (WB) were performed using antisera as indicated. The bands indicate the presence of protein complexes that can be precipitated by one antibody and detected by another. […] The spacer and CUB sequences are not required. […] In each case, a protein complex that could be precipitated with anti-Myc antibody was detected with anti-Flag M2 antibody.

| Binder | binding result [1] | binding result [2] | binding result [3] |
| --- | --- | --- | --- |
| B1 | binds | binds |  |
| B2 |  | binds |  |
| B3 |  |  | binds |

From US20030219813A1 (Takeda / Millennium, published 2003)
